Results taken from the RNAGym collection of RNA variant scans (doi:10.7554/elife.90254).

B1: LINE1-full (parent)
chain: UACGUAGGUGGUUUUCCCCUGAUAGUGCUAAGGGGGCCUGGAAGUUUGGACUGGGCAGAGCUCAACACAGCGUGGCAAAGUGGCUGUGGCUAGACUGCCUCUCUGGAUUCCUCGUCACUCAGCAGGGCAUCUCUGAGAGAAAUGCC

Variants of: B1
Assay: self-cleavage, relative activity (ratio to wild type); higher = more cleavage; in vitro, sequencing; the parent is a self-cleaving ribozyme

Variant | self-cleavage
UACGUAGGUGGUUUUCCCCUGAUAGUGCUAAGGGGGCCUGGAAGUUUGGACUGGGCAGAGCUCAACACGGCGUGGCAAAGUGGCUGAGGCUAGACUGCCUCUCUGGAUUCCUCGUCACUCAGCAGGGCAUCUCUGAGAGAAAUGCC [A69G U87A] | 0.03
UACGUAGGUGGUUUUCCCCUGAUAGUGCUAAGGGGGCCUGGAAGUUUGGACUGGGCAGAGCUCAACACGGCGUGGCAAAGUGGCUGCGGCUAGACUGCCUCUCUGGAUUCCUCGUCACUCAGCAGGGCAUCUCUGAGAGAAAUGCC [A69G U87C] | 0.07
UACGUAGGUGGUUUUCCCCUGAUAGUGCUAAGGGGGCCUGGAAGUUUGGACUGGGCAGAGCUCAACACGGCGUGGCAAAGUGGCUGGGGCUAGACUGCCUCUCUGGAUUCCUCGUCACUCAGCAGGGCAUCUCUGAGAGAAAUGCC [A69G U87G] | 0.48
UACGUAGGUGGUUUUCCCCUGAUAGUGCUAAGGGGGCCUGGAAGUUUGGACUGGGCAGAGCUCAACACGGCGUGGCAAAGUGGCUGUGGCUAGACUGCCUCUCUGGAUUCCUCGUCACUCAGCAGGGUAUCUCUGAGAGAAAUGCC [A69G C128U] | 0.63
UACGUAGGUGGUUUUCCCCUGAUAGUGCUAAGGGGGCCUGGAAGUUUGGACUGGGCAGAGCUCAACACGGCGUGGCAAAGUGGCUGUGGCUAUACUGCCUCUCUGGAUUCCUCGUCACUCAGCAGGGCAUCUCUGAGAGAAAUGCC [A69G G93U] | 0.01
UACGUAGGUGGUUUUCCCCUGAUAGUGCUAAGGGGGCCUGGAAGUUUGGACUGGGCAGAGCUCAACACGGCGUGGCAAAGUGGCUGUGACUAGACUGCCUCUCUGGAUUCCUCGUCACUCAGCAGGGCAUCUCUGAGAGAAAUGCC [A69G G89A] | 0.03
UACGUAGGUGGUUUUCCCCUGAUAGUGCUAAGGGGGCCUGGAAGUUUGGACUGGGCAGAGCUCAACACGGCGUGGCAAAGUGGCUGUGGCCAGACUGCCUCUCUGGAUUCCUCGUCACUCAGCAGGGCAUCUCUGAGAGAAAUGCC [A69G U91C] | 0
UACGUAGGUGGUUUUCCCCUGAUAGUGCUAAGGGGGCCUGGAAGUUUGGACUGGGCAGAGCUCAACACGGCGUGGCAAAGUGGCUGUGGCUAGACUGCCUCUCUGGAUUCCUCGUCACUCAGCAGGGCAUCUCUGAGAGAAAUACC [A69G G144A] | 1.02
UACGUAGGUGGUUUUCCCCUGAUAGUGCUAAGGGGGCCUGGAAGUUUGGACUGGGCAGAGCUCAACACGGCGAGGCAAAGUGGCUGUGGCUAGACUGCCUCUCUGGAUUCCUCGUCACUCAGCAGGGCAUCUCUGAGAGAAAUGCC [A69G U73A] | 0.28
UACGUAGGUGGUUUUCCCCUGAUAGUGCUAAGGGGGCCUGGAAGUUUGGACUGGGCAGAGCUCAACACGGCGUGGCAAAGUGUCUGUGGCUAGACUGCCUCUCUGGAUUCCUCGUCACUCAGCAGGGCAUCUCUGAGAGAAAUGCC [A69G G83U] | 0.15
UACGUAGGUGGUUUUCCCCUGAUAGUGCUAAGGGGGCCUGGAAGUUUGGACUGGGCAGAGCUCAACACGGCGUGGCAAAGUGACUGUGGCUAGACUGCCUCUCUGGAUUCCUCGUCACUCAGCAGGGCAUCUCUGAGAGAAAUGCC [A69G G83A] | 0.18
UACGUAGGUGGUUUUCCCCUGAUAGUGCUAAGGGGGCCUGGAAGUUUGGACUGGGCAGAGCUCAACACGGCGUGGCAAAGUGGCUGUGGCUAGACUGCCUCUCUGGAUUCCUCGUCACUCAGCAGGGCAUCUCUGAGAGAAAUGCA [A69G C146A] | 0.77
UACGUAGGUGGUUUUCCCCUGAUAGUGCUAAGGGGGCCUGGAAGUUUGGACUGGGCAGAGCUCAACACGGCGUGGCAAAGUGGCUGUGGCUAGACUGCCUCUCUAGAUUCCUCGUCACUCAGCAGGGCAUCUCUGAGAGAAAUGCC [A69G G105A] | 0.62
UACGUAGGUGGUUUUCCCCUGAUAGUGCUAAGGGGGCCUGGAAGUUUGGACUGGGCAGAGCUCAACACGGCGUGGCAAAGUGGCUGUGGCUAGACUGCCUCUCUGAAUUCCUCGUCACUCAGCAGGGCAUCUCUGAGAGAAAUGCC [A69G G106A] | 0.61
UACGUAGGUGGUUUUCCCCUGAUAGUGCUAAGGGGGCCUGGAAGUUUGGACUGGGCAGAGCUCAACACGGCGUGGCAAAGUGGCUGUGGCUAGACUUCCUCUCUGGAUUCCUCGUCACUCAGCAGGGCAUCUCUGAGAGAAAUGCC [A69G G97U] | 0.07
UACGUAGGUGGUUUUCCCCUGAUAGUGCUAAGGGGGCCUGGAAGUUUGGACUGGGCAGAGCUCAACACGGCGUGGCAAAGUGGCUGUGGCUAGACUGCCUCUCUGGAUUCCUCGUCACUCAGCAAGGCAUCUCUGAGAGAAAUGCC [A69G G125A] | 0.72
UACGUAGGUGGUUUUCCCCUGAUAGUGCUAAGGGGGCCUGGAAGUUUGGACUGGGCAGAGCUCAACACGGCGUGGCAAAGUGGCUGUGGCUAGACUGCCUCUCUGGAUUCCUCGUCACUCAGCAGGGCAUCUCUGAGAGAAAUGAC [A69G C145A] | 0.71
UACGUAGGUGGUUUUCCCCUGAUAGUGCUAAGGGGGCCUGGAAGUUUGGACUGGGCAGAGCUCAACACGGCGUGGCAAAGCGGCUGUGGCUAGACUGCCUCUCUGGAUUCCUCGUCACUCAGCAGGGCAUCUCUGAGAGAAAUGCC [A69G U81C] | 0.54
UACGUAGGUGGUUUUCCCCUGAUAGUGCUAAGGGGGCCUGGAAGUUUGGACUGGGCAGAGCUCAACACGGCGUGGCAAAGAGGCUGUGGCUAGACUGCCUCUCUGGAUUCCUCGUCACUCAGCAGGGCAUCUCUGAGAGAAAUGCC [A69G U81A] | 0.38
UACGUAGGUGGUUUUCCCCUGAUAGUGCUAAGGGGGCCUGGAAGUUUGGACUGGGCAGAGCUCAACACGGCGUGGCAAAGUGGCAGUGGCUAGACUGCCUCUCUGGAUUCCUCGUCACUCAGCAGGGCAUCUCUGAGAGAAAUGCC [A69G U85A] | 0.09
